Laboratory results reported in the Immune Epitope Database (IEDB).

Experiments:
HLA-A*02:01 [1] = assay: IEDB peptide-MHC binding, purified MHC/competitive/fluorescence; filed as Kd, often an IC50 or EC50 that approximates it; ≥ and ≤ were set here for values at or beyond the usual limits of such assays; settings: source organism: Vibrio vulnificus YJ016
HLA-B*07:02 [2] = assay: as above; settings: source organism: Vibrio vulnificus YJ016
HLA-B*39:01 = assay: as above
HLA-A*30:01 = assay: as above; settings: source organism: Vibrio vulnificus YJ016
HLA-A*02:03 = assay: as above; settings: source organism: Vibrio vulnificus YJ016
HLA-A*02:06 = assay: as above; settings: source organism: Vibrio vulnificus YJ016
HLA-A*26:03 = assay: IEDB peptide-MHC binding, purified MHC/direct/fluorescence; filed as Kd, often an IC50 or EC50 that approximates it; ≥ and ≤ were set here for values at or beyond the usual limits of such assays; settings: source organism: Vibrio vulnificus YJ016
HLA-B*57:01 = assay: as above
HLA-A*69:01 [3] = assay: as above; settings: source organism: Vibrio vulnificus YJ016
HLA-A*11:01 = assay: as above
HLA-A*68:02 = assay: as above
HLA-B*58:01 = assay: as above; settings: source organism: Vibrio vulnificus YJ016
HLA-B*18:01 = assay: as above
HLA-A*31:01 = assay: as above; settings: source organism: Vibrio vulnificus YJ016
HLA-A*02:11 = assay: as above; settings: source organism: Vibrio vulnificus YJ016
HLA-A*26:02 = assay: as above
HLA-B*15:17 = assay: as above; settings: source organism: Vibrio vulnificus YJ016
HLA-B*08:01 [4] = assay: as above
HLA-A*01:01 = assay: as above
HLA-A*69:01 [5] = assay: IEDB peptide-MHC binding, purified MHC/competitive/fluorescence; filed as Kd, often an IC50 or EC50 that approximates it; ≥ and ≤ were set here for values at or beyond the usual limits of such assays; settings: source organism: Zaire ebolavirus
HLA-B*27:03 = assay: as above; settings: source organism: Zaire ebolavirus
HLA-A*26:01 [6] = assay: as above; settings: source organism: Zaire ebolavirus
HLA-A*29:02 = assay: IEDB peptide-MHC binding, purified MHC/direct/fluorescence; filed as Kd, often an IC50 or EC50 that approximates it; ≥ and ≤ were set here for values at or beyond the usual limits of such assays; settings: source organism: Zaire ebolavirus
HLA-B*07:02 [7] = assay: as above
HLA-B*27:05 = assay: as above; settings: source organism: Zaire ebolavirus
HLA-A*03:01 = assay: as above; settings: source organism: Zaire ebolavirus
HLA-A*23:01 = assay: as above; settings: source organism: Zaire ebolavirus
HLA-B*44:02 = assay: as above; settings: source organism: Zaire ebolavirus
HLA-B*46:01 = assay: as above; settings: source organism: Zaire ebolavirus
HLA-A*02:01 [8] = assay: IEDB peptide-MHC binding, purified MHC/competitive/fluorescence; ≥ and ≤ were set here for values at or beyond the usual limits of such assays; settings: source organism: Zaire ebolavirus
HLA-B*07:02 [9] = assay: as above; settings: source organism: Zaire ebolavirus
HLA-A*24:02 = assay: as above; settings: source organism: Zaire ebolavirus
HLA-B*15:01 [10] = assay: as above; settings: source organism: Zaire ebolavirus
HLA-B*08:01 [11] = assay: as above; settings: source organism: Zaire ebolavirus
HLA-C*14:02 = assay: IEDB peptide-MHC binding, purified MHC/direct/fluorescence; filed as Kd, often an IC50 or EC50 that approximates it; ≥ and ≤ were set here for values at or beyond the usual limits of such assays
HLA-B*51:01 = assay: as above
HLA-A*26:01 [12] = assay: as above; settings: source organism: Influenza A virus (A/goose/Hong Kong/8/1976(H1N1))
HLA-B*15:01 [13] = assay: as above; settings: source organism: Yellow fever virus 17D
[14] = source organism: Vibrio vulnificus YJ016
[15] = source organism: Zaire ebolavirus
[16] = source organism: Giardia lamblia ATCC 50803

Work on LLRRRPYPL yielded a Kd (HLA-A*02:01 [1]) of 0.105 µM, a Kd (HLA-B*07:02 [2]) of 0.206 µM and a Kd (HLA-B*39:01; [14]) of no less than 20 µM. The Kd (HLA-A*30:01) was 0.441 µM, the Kd (HLA-A*02:03) was 0.0021 µM and the Kd (HLA-A*02:06) was 2.04 µM. For the same sequence, the Kd (HLA-A*26:03) was no less than 20 µM, the Kd (HLA-B*57:01; [14]) was no less than 20 µM and the Kd (HLA-A*69:01 [3]) was no less than 20 µM. It also gave a Kd (HLA-A*11:01; [14]) of no less than 20 µM, a Kd (HLA-A*68:02; [14]) of no less than 20 µM and a Kd (HLA-B*58:01) of no less than 20 µM. It also gave a Kd (HLA-B*18:01; [14]) of no less than 20 µM, a Kd (HLA-A*31:01) of no less than 20 µM and a Kd (HLA-A*02:11) of no more than 0.001 µM. The Kd (HLA-A*26:02; [14]) was no less than 20 µM, the Kd (HLA-B*15:17) was no less than 20 µM and the Kd (HLA-B*08:01 [4]; [14]) was 0.003 µM. It also gave a Kd (HLA-A*01:01; [14]) of no less than 20 µM.
For RLAKLTEAI, the Kd (HLA-A*69:01 [5]) was no less than 20 µM, the Kd (HLA-B*39:01; [15]) was no less than 20 µM and the Kd (HLA-B*27:03) was no less than 20 µM. The Kd (HLA-A*26:01 [6]) was no less than 20 µM, the Kd (HLA-B*57:01; [15]) was no less than 20 µM and the Kd (HLA-A*29:02) was no less than 20 µM. It also gave a Kd (HLA-A*11:01; [15]) of no less than 20 µM, a Kd (HLA-A*68:02; [15]) of no less than 20 µM and a Kd (HLA-B*07:02 [7]; [15]) of no less than 20 µM. For the same sequence, the Kd (HLA-B*27:05) was no less than 20 µM, the Kd (HLA-B*18:01; [15]) was no less than 20 µM and the Kd (HLA-A*03:01) was no less than 20 µM. The Kd (HLA-A*23:01) was no less than 20 µM, the Kd (HLA-B*08:01 [4]; [15]) was 13.3 µM and the Kd (HLA-A*01:01; [15]) was no less than 20 µM. The Kd (HLA-B*44:02) was no less than 20 µM, the Kd (HLA-B*46:01) was no less than 20 µM and the IC50 (HLA-A*02:01 [8]) was 14.9 µM. It also gave an IC50 (HLA-B*07:02 [9]) of no less than 217 µM, an IC50 (HLA-A*24:02) of 1.43 µM and an IC50 (HLA-B*15:01 [10]) of 48 µM. For the same sequence, the IC50 (HLA-B*08:01 [11]) was no less than 182 µM.
Sequence AAVSHLTTL has an IC50 (HLA-A*02:01 [8]) of 1.05 µM, an IC50 (HLA-B*07:02 [9]) of 21.7 µM and an IC50 (HLA-A*24:02) of 2.25 µM. For the same sequence, the IC50 (HLA-B*15:01 [10]) was 16.5 µM.
DTITNVTTM gave a Kd (HLA-C*14:02; source organism: West Nile virus) of 1.65 µM and a Kd (HLA-A*26:02; source organism: West Nile virus strain PTRoxo) of no more than 0.001 µM.
Work on ATAQNRRAL yielded a Kd (HLA-C*14:02; [16]) of 0.273 µM, a Kd (HLA-B*07:02 [7]; [16]) of 0.0227 µM and a Kd (HLA-B*51:01; [16]) of no less than 20 µM.
LSPGMMMGM showed a Kd (HLA-A*26:02; source organism: Influenza B virus (B/Beijing/184/93)) of 0.319 µM and a Kd (HLA-A*26:01 [12]) of no less than 20 µM.
In the case of SVAMCRTPF, the Kd (HLA-B*15:01 [13]) is reported as 0.032 µM and the Kd (HLA-B*51:01; source organism: Yellow fever virus 17D) is reported as no less than 20 µM.
